Experimental findings from patent US20230416361A1 (MIROBIO, published 2023) are described below.

For experiment [1], the target named is T1, extracellular domain of cyno CD200R (SinoBiological 11232-C08H, Met1-Leu267) (cynomolgus, UniProt G7NZT0 25-268).
T1 construct: range 1-267; Bought protein
T1 sequence: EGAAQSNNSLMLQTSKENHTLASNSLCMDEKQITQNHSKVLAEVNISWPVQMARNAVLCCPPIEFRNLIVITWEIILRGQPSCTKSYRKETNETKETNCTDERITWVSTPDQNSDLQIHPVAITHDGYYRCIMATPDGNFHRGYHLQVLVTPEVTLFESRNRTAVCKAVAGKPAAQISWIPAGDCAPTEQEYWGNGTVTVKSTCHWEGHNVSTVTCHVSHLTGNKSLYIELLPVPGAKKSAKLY
The experiment is described as follows: SPR (Biacore), antibody captured by anti-human Fc, CD200R extracellular domain injected, single cycle kinetics, 25 C. As to the method: This example investigates in vitro CD200R binding of anti-CD200R antibodies by surface plasmon resonance. Surface plasmon resonance binding experiments with purified anti-CD200R antibody (expressed on a hIgG1 isotype with a P238D Fc mutation) were performed using the Biacore T200 and 8K+instruments. Anti-human Fc antibody (Life Technologies H10500) was amine-coupled to a C1 sensor chip using standard amine-coupling chemistry. Residual activated carboxyls were blocked with ethanolamine. Antibodies with a human Fc were then captured on these surfaces.
To assess the binding of hu2131_v20_D56S antibody and variants (antibody hu213l_Q1E and antibody hu2131_Q1E_M99G) to the extracellular domains of human CD200R (Met29-Leu243) and cyno CD200R (SinoBiological 11232-C08H, Metl-Leu267), 10-30 RUs of antibody were captured. CD200R proteins were diluted into running buffer (10 mM HEPES, 150 mM NaCl, 3 mM EDTA, 0.01% Polysorbate 20, pH 7.4 with 0.1 mg/mL BSA) (full-length antibody sequences are disclosed in Table 10). Five three-fold serial dilutions were performed for each CD200R, with highest concentration being 100 nM. Samples were injected using a single cycle kinetics scheme (Karlsson Anal Biochem et al 2006). Data were analyzed using Biacore Insight Evaluation Software and fit to a simple kinetic model, from which kon and koff were obtained to calculate KD using the relationship KD=koff/kon. Experiments were run at 25° C.
Background: Surface plasmon resonance follows binding to a sensor surface in real time, without labels.

Experiment [2] addresses T2, monomeric soluble human CD200R extracellular domain (human, UniProt Q8TD46 29-265).
T2 construct: extracellular domain; also called hCD200R; monomeric CD200R protein
T2 sequence (looked up): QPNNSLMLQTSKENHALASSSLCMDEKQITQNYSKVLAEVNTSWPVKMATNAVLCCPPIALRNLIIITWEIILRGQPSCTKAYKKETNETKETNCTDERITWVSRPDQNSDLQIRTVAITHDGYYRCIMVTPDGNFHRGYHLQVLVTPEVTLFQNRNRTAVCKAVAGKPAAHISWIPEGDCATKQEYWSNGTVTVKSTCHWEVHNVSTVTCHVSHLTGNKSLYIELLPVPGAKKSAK
The experiment is described as follows: BLI (Octet), antibody on anti-human Fc probes, monomeric CD200R in solution, 25 C, 1:1 global fit. As to the method: Humanised variant antibodies combining the different heavy and light variable domains described in Example 6 were produced by transient transfection of HEK293 cells. All antibodies were expressed on a human IgGI isotype with a P238D Fc mutation. The unpurified supernatants were analysed by Protein A-HPLC to determine the antibody concentrations, as a measure of expression yield. […] Binding affinity of humanized variants to human CD200R was assessed by bio-layer interferometry on an Octet R4 instrument. Each antibody was captured directly onto anti-human Fc capture probes (Sartorius 18-5060) for 60 sec followed by baseline setting in assay buffer (DPBS, 0.01% Polysorbate-20). Association of monomeric CD200R protein to immobilised antibodies was measured in 4 different protein concentrations (300, 100, 30 and 10 nM in assay buffer) at 25° C., with an association time of 120s and dissociation of 120s in assay buffer only. A reference probe with no antibody immobilised was used for background subtraction. Kinetic rate constants and binding KDs were calculated using Octet Analysis Studio 12 software. Global curve fitting based on all 4 concentrations using a 1:1 model was performed, from which kon and koff were obtained to calculate KD using the relationship KD=koff/kon.
On the technique in general: Biolayer interferometry detects binding as a change in optical thickness at a sensor tip.

Experiment [3] has as its target T3, human CD200RLa full length construct on HEK293T cells (human, UniProt Q6Q8B3 24-271).
T3 construct: whole, on cells; also called CD200R1L
T3 sequence (looked up): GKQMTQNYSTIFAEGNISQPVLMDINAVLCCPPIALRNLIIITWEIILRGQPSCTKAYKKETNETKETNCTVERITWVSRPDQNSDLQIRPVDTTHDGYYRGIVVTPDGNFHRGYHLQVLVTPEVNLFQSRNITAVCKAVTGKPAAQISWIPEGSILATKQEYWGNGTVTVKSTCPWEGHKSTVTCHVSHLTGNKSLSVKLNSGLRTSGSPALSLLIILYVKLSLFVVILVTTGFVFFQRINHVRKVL
Kind of experiment: flow cytometry on transiently transfected HEK293T cells. The protocol: (§1) The binding of CD200R antibodies to human and cyno CD200R and CD200RLa constructs was assessed by flow cytometry of transiently transfected cells. CD200RLa has a charged transmembrane (TM) that is not expected to express well in the absence of appropriate binding partners. Therefore, in addition to the full length CD200RLa constructs, chimeric constructs were used consisting of the CD200RLa extracellular domain fused to mouse CD80 transmembrane and intracellular tail to enable cell surface expression.
(§2) HEK293T cells were plated out at 1 million cells per well in a 6 well plate the day before transfection. The following day cells were transfected with CD200R constructs using 2.5 μg plasmid DNA (a pcDNA3.4 vector containing the CD200R construct sequence) and 10 μl Lipofectamine 2000 (mixed in 200 μl Optimem for 5 minutes then added dropwise to cells). 48 hours after transfection, cells were collected by vigorous pipetting in cold PBS and 50,000 cells pelleted per well in 96 well U bottom plates.
(§3) Cells were then washed and stained for 30 minutes with a secondary staining mix containing a live/dead marker (Near IR LD, Biolegend cat #423106) and APC anti-hIgG (clone QA19A42, Biolegend cat #366906) or AF647 anti-mIgG1 (clone RMG1-1, cat #406618). As a control, cells were separately stained with the commercial anti-CD200R clone OX108 directly labelled with AF647 (Biolegend cat #329308). Finally, cells were washed and resuspended in FACS buffer for acquisition on a FACS Celesta flow cytometer.

Experiment [4] has as its target T4, cyno CD200RLa full length construct on cells (cynomolgus, UniProt A0A2K5W6R0 30-275).
T4 construct: whole, on cells; also called cynomolgus CD200RLa expressed on cells
T4 sequence: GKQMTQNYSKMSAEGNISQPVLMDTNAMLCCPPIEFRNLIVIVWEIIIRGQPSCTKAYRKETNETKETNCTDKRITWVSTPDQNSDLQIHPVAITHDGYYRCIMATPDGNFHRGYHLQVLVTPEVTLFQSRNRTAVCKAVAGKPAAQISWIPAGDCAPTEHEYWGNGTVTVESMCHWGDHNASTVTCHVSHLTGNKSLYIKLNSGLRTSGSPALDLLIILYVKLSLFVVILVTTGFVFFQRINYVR
The description is as above. The protocol: as §1, §2, §3

Experiment [5] addresses T5, human CD200RLa extracellular domain fused to mouse CD80 transmembrane and intracellular tail, on HEK293T cells (human; mouse, UniProt Q6Q8B3 24-239; Q00609 247-306, limits assumed).
T5 construct: extracellular domain;domain: transmembrane and intracellular tail; also called human CD200RLa chimeric construct
T5 sequence (looked up): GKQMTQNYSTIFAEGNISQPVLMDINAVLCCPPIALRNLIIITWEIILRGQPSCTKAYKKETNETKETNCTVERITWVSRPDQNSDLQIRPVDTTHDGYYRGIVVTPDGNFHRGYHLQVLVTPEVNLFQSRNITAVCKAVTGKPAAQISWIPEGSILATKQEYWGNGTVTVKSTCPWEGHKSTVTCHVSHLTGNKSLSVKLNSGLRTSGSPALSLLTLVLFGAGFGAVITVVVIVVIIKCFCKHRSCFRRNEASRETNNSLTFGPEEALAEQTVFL
The description is as above. As to the method: as §1, §2, §3

B1: hu2131_v20_D56S hIgG1k P238D (antibody)
heavy: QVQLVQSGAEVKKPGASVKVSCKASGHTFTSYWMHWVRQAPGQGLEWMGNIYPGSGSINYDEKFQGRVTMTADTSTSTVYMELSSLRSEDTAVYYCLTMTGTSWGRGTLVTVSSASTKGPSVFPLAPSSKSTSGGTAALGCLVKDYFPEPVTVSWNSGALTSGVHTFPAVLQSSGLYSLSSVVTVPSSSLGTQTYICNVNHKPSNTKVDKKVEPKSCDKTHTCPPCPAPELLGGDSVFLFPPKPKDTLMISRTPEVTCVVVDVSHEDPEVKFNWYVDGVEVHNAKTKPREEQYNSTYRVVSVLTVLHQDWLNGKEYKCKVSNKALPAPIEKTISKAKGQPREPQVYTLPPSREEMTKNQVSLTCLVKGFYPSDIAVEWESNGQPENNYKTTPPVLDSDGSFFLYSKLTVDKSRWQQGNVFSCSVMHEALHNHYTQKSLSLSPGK
light: DIQMTQSPSSLSVSVGDRVTITCQASQGTPINLHWFQQKPGKAPKLLISGASNLESGVPSRFSGSGSGTEFTFTISSLQPEDAATYYCLQFTYIPWTFGQGTKLEIKRTVAAPSVFIFPPSDEQLKSGTASVVCLLNNFYPREAKVQWKVDNALQSGNSQESVTEQDSKDSTYSLSSTLTLSKADYEKHKVYACEVTHQGLSSPVTKSFNRGEC
notes: also called VH4/VL5-D56S
As to B1, the Kd (as a rule, the constant that tells how readily two partners part at equilibrium) worked out at 41 pM in experiment [1] and 2.06 pM in experiment [2]. Moreover, the koff (usually the first-order rate constant of dissociation) in experiment [1] is 1.06e-05 s⁻¹. The kon (usually the rate constant with which the complex forms) in experiment [1] came to 258000 M⁻¹ s⁻¹. In addition, the binding result in experiment [3], in experiment [4] and in experiment [5] was “no binding (tested: 10 ug/ml)” each time.

B2: hu2131_Q1E_M99G hIgG1k P238D (antibody, V domains shown)
VH: EVQLVQSGAEVKKPGASVKVSCKASGHTFTSYWMHWVRQAPGQGLEWMGNIYPGSGSINYDEKFQGRVTMTADTSTSTVYMELSSLRSEDTAVYYCLTGTGTSWGRGTLVTVSS
VL: DIQMTQSPSSLSVSVGDRVTITCQASQGTPINLHWFQQKPGKAPKLLISGASNLESGVPSRFSGSGSGTEFTFTISSLQPEDAATYYCLQFTYIPWTFGQGTKLEIKR
In experiment [1], B2 came in with a Kd of 91.7 pM, a koff of 2.23e-05 s⁻¹ and a kon of 244000 M⁻¹ s⁻¹. Further, the binding result in experiment [3] was “no binding (tested: 10 ug/ml)”. In experiment [4], the binding result is recorded as “no binding (tested: 10 ug/ml)”. The binding result in experiment [5] was “no binding (tested: 10 ug/ml)”.

B3: 2131_chimera (antibody, V domains shown)
VH: QVQLQQPGSELVRPGASVKLSCKASGHTFTSYWMHWVKQRPGQGLEWIGNIYPGSGSINYDEKFKSKAKLTVDTSSRTAYMQLSSLTSEDSAVYYCLTMTGTSWGQGTLVTVSA
VL: DVQMIQSPSSLSASLGDIVTMTCQASQGTPINLHWFQQKPGKAPKLLISGASNLEDGVPSRFSGSRYGTAFTLTISSLEDEDMATYFCLQFTYIPWTFGGGTKLEIK
Molecule B3 gave a Kd in experiment [2] of 3.04 pM. For the same molecule, the binding result in experiment [3], in experiment [4] and in experiment [5] was “no binding (tested: 10 ug/ml)” in each case.

B4: hu2131_v20 (antibody, human IgG1, V domains shown)
VH: QVQLVQSGAEVKKPGASVKVSCKASGHTFTSYWMHWVRQAPGQGLEWMGNIYPGSGSINYDEKFQGRVTMTADTSTSTVYMELSSLRSEDTAVYYCLTMTGTSWGRGTLVTVSS
VL: DIQMTQSPSSLSVSVGDRVTITCQASQGTPINLHWFQQKPGKAPKLLISGASNLEDGVPSRFSGSGSGTEFTFTISSLQPEDAATYYCLQFTYIPWTFGQGTKLEIK
Take B4: the Kd in experiment [2] turned out to be 2.75 pM. For the same molecule, the binding result in experiment [3], in experiment [4] and in experiment [5] was “no binding (tested: 10 ug/ml)” throughout.
